# B1: SCNN1D (parent)
# chain: FLGHHSFSVRPGTEATISIREDEV
# Variants of: B1
# Experiment: protein stability index of a GFP-peptide fusion (GPS, HEK-293T) (PSI 1-6); higher = more stable
# Conditions: c terminus: a fixed tail appended
# 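Note: lentivirally expressed fusions sorted by FACS into six bins by GFP to DsRed ratio, PSI derived from sequencing read proportions per bin multiplied by bin number.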
row,Variant,protein stability index
1,FLFHHSFSVRPGTEATISIREDEV [G3F],3.48
2,FLSHHSFSVRPGTEATISIREDEV [G3S],2.42
3,FLPHHSFSVRPGTEATISIREDEV [G3P],4.02
4,FLDHHSFSVRPGTEATISIREDEV [G3D],2.77
5,FLCHHSFSVRPGTEATISIREDEV [G3C],2.51
6,FLNHHSFSVRPGTEATISIREDEV [G3N],2.26
7,FLHHHSFSVRPGTEATISIREDEV [G3H],2.71
8,FLMHHSFSVRPGTEATISIREDEV [G3M],1.42
9,FLRHHSFSVRPGTEATISIREDEV [G3R],2.09
10,FLVHHSFSVRPGTEATISIREDEV [G3V],1.64
11,FLEHHSFSVRPGTEATISIREDEV [G3E],2.58
12,FLTHHSFSVRPGTEATISIREDEV [G3T],2.23
13,FLIHHSFSVRPGTEATISIREDEV [G3I],1.59
14,FLLHHSFSVRPGTEATISIREDEV [G3L],2.28
15,FLYHHSFSVRPGTEATISIREDEV [G3Y],3.25
16,FLAHHSFSVRPGTEATISIREDEV [G3A],1.95
17,FLKHHSFSVRPGTEATISIREDEV [G3K],3.02
18,FLGHQSFSVRPGTEATISIREDEV [H5Q],1.25
19,FLGHPSFSVRPGTEATISIREDEV [H5P],2.13
20,FLGHCSFSVRPGTEATISIREDEV [H5C],1.53
21,FLGHSSFSVRPGTEATISIREDEV [H5S],1.75
22,FLGHDSFSVRPGTEATISIREDEV [H5D],2.02
23,FLGHWSFSVRPGTEATISIREDEV [H5W],3.19
24,FLGHMSFSVRPGTEATISIREDEV [H5M],2.33

row,Variant,protein stability index
1,FLGHVSFSVRPGTEATISIREDEV [H5V],1.33
2,FLGHKSFSVRPGTEATISIREDEV [H5K],3.06
3,FLGHRSFSVRPGTEATISIREDEV [H5R],2.55
4,FLGHLSFSVRPGTEATISIREDEV [H5L],2.28
5,FLGHISFSVRPGTEATISIREDEV [H5I],1.64
6,FLGHTSFSVRPGTEATISIREDEV [H5T],1.54
7,FLGHYSFSVRPGTEATISIREDEV [H5Y],1.89
8,FLGHGSFSVRPGTEATISIREDEV [H5G],2.3
9,FLGHESFSVRPGTEATISIREDEV [H5E],1.78
10,FLGHNSFSVRPGTEATISIREDEV [H5N],1.71
11,FLGHASFSVRPGTEATISIREDEV [H5A],2.46
12,FLGHHSLSVRPGTEATISIREDEV [F7L],4.01
13,FLGHHSCSVRPGTEATISIREDEV [F7C],3.6
14,FLGHHSGSVRPGTEATISIREDEV [F7G],4.43
15,FLGHHSHSVRPGTEATISIREDEV [F7H],4.17
16,FLGHHSDSVRPGTEATISIREDEV [F7D],4.41
17,FLGHHSASVRPGTEATISIREDEV [F7A],4.31
18,FLGHHSISVRPGTEATISIREDEV [F7I],3.65
19,FLGHHSESVRPGTEATISIREDEV [F7E],4.81
20,FLGHHSKSVRPGTEATISIREDEV [F7K],4.54
21,FLGPHSFSVRPGTEATISIREDEV [H4P],1.7
22,FLGEHSFSVRPGTEATISIREDEV [H4E],3.39
23,FLGRHSFSVRPGTEATISIREDEV [H4R],2.68
24,FLGIHSFSVRPGTEATISIREDEV [H4I],2.64

row,Variant,protein stability index
1,FLGVHSFSVRPGTEATISIREDEV [H4V],1.77
2,FLGSHSFSVRPGTEATISIREDEV [H4S],1.9
3,FLGGHSFSVRPGTEATISIREDEV [H4G],2.2
4,FLGAHSFSVRPGTEATISIREDEV [H4A],2.74
5,FLGYHSFSVRPGTEATISIREDEV [H4Y],1.42
6,FLGDHSFSVRPGTEATISIREDEV [H4D],3.7
7,FLGCHSFSVRPGTEATISIREDEV [H4C],1.39
8,FLGFHSFSVRPGTEATISIREDEV [H4F],3.4
9,FLGKHSFSVRPGTEATISIREDEV [H4K],2.16
10,FLGMHSFSVRPGTEATISIREDEV [H4M],1.58
11,FLGQHSFSVRPGTEATISIREDEV [H4Q],1.32
12,FLGTHSFSVRPGTEATISIREDEV [H4T],2.16
13,FLGNHSFSVRPGTEATISIREDEV [H4N],2.29
14,FLGLHSFSVRPGTEATISIREDEV [H4L],2.08
15,FQGHHSFSVRPGTEATISIREDEV [L2Q],1.95
16,FSGHHSFSVRPGTEATISIREDEV [L2S],1.76
17,FMGHHSFSVRPGTEATISIREDEV [L2M],1.95
18,FYGHHSFSVRPGTEATISIREDEV [L2Y],3.44
19,FRGHHSFSVRPGTEATISIREDEV [L2R],4.48
20,FHGHHSFSVRPGTEATISIREDEV [L2H],1.33
21,FGGHHSFSVRPGTEATISIREDEV [L2G],2.72
22,FFGHHSFSVRPGTEATISIREDEV [L2F],2.93
23,FVGHHSFSVRPGTEATISIREDEV [L2V],2.64
24,FWGHHSFSVRPGTEATISIREDEV [L2W],2.4

row,Variant,protein stability index
1,FKGHHSFSVRPGTEATISIREDEV [L2K],4.07
2,FIGHHSFSVRPGTEATISIREDEV [L2I],2.44
3,FPGHHSFSVRPGTEATISIREDEV [L2P],1.72
4,FNGHHSFSVRPGTEATISIREDEV [L2N],3.15
5,FTGHHSFSVRPGTEATISIREDEV [L2T],3.09
6,FLGHHAFSVRPGTEATISIREDEV [S6A],3.88
7,FLGHHTFSVRPGTEATISIREDEV [S6T],2.02
8,FLGHHWFSVRPGTEATISIREDEV [S6W],1.85
9,FLGHHYFSVRPGTEATISIREDEV [S6Y],2.88
10,FLGHHVFSVRPGTEATISIREDEV [S6V],1.88
11,FLGHHEFSVRPGTEATISIREDEV [S6E],2.73
12,FLGHHFFSVRPGTEATISIREDEV [S6F],2.92
13,FLGHHCFSVRPGTEATISIREDEV [S6C],2.25
14,FLGHHNFSVRPGTEATISIREDEV [S6N],2.08
15,FLGHHGFSVRPGTEATISIREDEV [S6G],1.16
16,FLGHHPFSVRPGTEATISIREDEV [S6P],1.46
17,FLGHHMFSVRPGTEATISIREDEV [S6M],2.96
18,FLGHHKFSVRPGTEATISIREDEV [S6K],1.7
19,FLGHHHFSVRPGTEATISIREDEV [S6H],2.08
20,FLGHHDFSVRPGTEATISIREDEV [S6D],2.13
21,FLGHHQFSVRPGTEATISIREDEV [S6Q],1.76
22,FLGHHRFSVRPGTEATISIREDEV [S6R],2.19
